In patent US10052365B2, “Methods and products relating to GSK3β regulation” (University of Vermont and State Agricultural College, priority 2008, dated 2018):
Entries after “also recorded” stand apart in the source; their conditions may differ. Where no end group is shown, it is not given here. [ ]: non-standard residue; d: D form. pT = C[C@@H](OP(=O)(O)O)[C@H](N)C(=O)O; pS = N[C@@H](COP(=O)(O)O)C(=O)O

Experiments:
GST-GSK3β [1] = molecular target: T1, GST-GSK3β (Homo sapiens, UniProt P49841); assay: In vitro GSK3β kinase assay with inhibitory peptides (GSM substrate); assay type: biochemical; conditions: for GSK3β activity in the presence of peptide: in vitro kinase reaction, FIG. 3G
T1 construct: made in house
T1 sequence (P49841 whole entry): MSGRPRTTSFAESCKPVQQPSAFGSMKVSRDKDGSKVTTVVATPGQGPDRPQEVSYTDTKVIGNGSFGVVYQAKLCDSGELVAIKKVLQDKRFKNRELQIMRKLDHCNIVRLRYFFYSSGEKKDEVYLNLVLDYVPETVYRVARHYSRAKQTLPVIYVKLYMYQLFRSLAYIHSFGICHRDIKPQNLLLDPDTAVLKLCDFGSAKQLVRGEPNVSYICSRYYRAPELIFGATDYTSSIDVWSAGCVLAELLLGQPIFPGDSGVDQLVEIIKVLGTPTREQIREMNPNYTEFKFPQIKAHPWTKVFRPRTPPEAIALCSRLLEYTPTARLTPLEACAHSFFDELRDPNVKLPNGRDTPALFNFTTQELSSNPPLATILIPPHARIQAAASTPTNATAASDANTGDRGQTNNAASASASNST
Procedure: (§1) Active GST-GSK3β and GST-GSK3β-T^43A and GST-GSK3β-T^390 mutants were expressed and purified as described in (29). The specific activity of the wildtype and the mutants was determined using the GSM substrate peptide (Upstate, Lake Placid, N.Y.) and were as follows: GST-GSK3β (91 μmol/μg×min) and GST-GSK3β-T^43A (53 μmol/μg×min) and GST-GSK3β-T^390A (65 μmol/μg×min). In vitro GSK3β kinase assays were performed by incubating purified active wildtype GST-GSK3β or GST-GSK3β-T^43A and GST-GSK3β-T^390A mutants (400 ng) at 30° C. for 10 minutes in kinase buffer supplemented with 1 mM ATP containing [γ-^32P] ATP and GSM substrate peptide (62.5 μM) (Upstate, Lake Placid, N.Y.). Reactions were terminated by spotting onto P81 filters. Filters were washed extensively and counted in a scintillation counter. To examine the effect of p38 MAPK and Akt on GSK3β activity, purified active GSK3β or mutants were preincubated for 15 minutes at 30° C. with 500 ng recombinant active p38 MAPK or active Akt (Cell Signaling, Beverly, Mass.) prior to performing the GSK3β activity assay as described above.
For peptide inhibition assays, Phospho-S^9 (GRPRTTS(PO3H2)FAE) (SEQ ID NO:95) (20). Phospho-[…] (RIQAAAST(PO3H2)PTN) (SEQ ID NO:7) and non-phospho-T^390 (RIQAAASTPTN) (SEQ ID NO:96) peptides were synthesized and purified by UVM protein Core Facility. In vitro kinase assays were performed with purified GST-GSK3β (400 ng) in Kinase buffer supplement with 1 mM ATP containing [γ-^32P] ATP and the indicated concentrations of GSM and inhibitory peptide.

GSK3α = GSK3α (Homo sapiens, UniProt P49840); assay: In vitro GSK3α kinase assay after preincubation with activated p38 MAPK; assay type: biochemical; conditions: pre-incubated 15 min; FIG. 12
Chain of GSK3α (P49840 whole entry, species assumed): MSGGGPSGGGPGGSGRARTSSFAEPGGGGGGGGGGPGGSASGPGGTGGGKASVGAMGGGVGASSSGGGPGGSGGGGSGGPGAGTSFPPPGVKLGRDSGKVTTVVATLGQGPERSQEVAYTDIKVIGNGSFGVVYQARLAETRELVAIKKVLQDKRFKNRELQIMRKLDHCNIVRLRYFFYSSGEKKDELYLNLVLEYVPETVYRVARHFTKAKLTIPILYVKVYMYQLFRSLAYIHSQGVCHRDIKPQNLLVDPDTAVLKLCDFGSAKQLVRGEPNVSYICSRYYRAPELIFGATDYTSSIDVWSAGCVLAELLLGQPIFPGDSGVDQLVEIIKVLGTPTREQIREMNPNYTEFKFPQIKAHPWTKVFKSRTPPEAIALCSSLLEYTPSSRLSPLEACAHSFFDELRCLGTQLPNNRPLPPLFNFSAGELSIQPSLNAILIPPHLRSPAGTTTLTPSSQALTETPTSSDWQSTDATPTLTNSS
Procedure: Recombinant kinase-active GSK3α was pre-incubated in the reaction buffer alone (GSKα), with activated p38 MAPK or activated Akt (15 min). In vitro GSK3α kinase assays were then performed using GSM as the substrate. Error bars represent SD (n=3).

GSK3β-T^43A mutant = molecular target: T2, GSK3β-T^43A mutant (Homo sapiens, UniProt P49841, T43A); assay: GSK3β activity after preincubation with active p38 MAPK or Akt; assay type: biochemical; conditions: preincubated 15 minutes at 30° C. with 500 ng kinase; FIG. 3E
T2 construct: made in house
T2 sequence (P49841 whole entry T43A): as the sequence (P49841 whole entry) above, with T43A counted along it
Procedure: as §1

GSK3β-T^390A mutant = molecular target: T3, GSK3β-T^390A mutant (Homo sapiens, UniProt P49841, T390A); assay: as above; assay type: biochemical; conditions: preincubated 15 minutes at 30° C. with 500 ng kinase; FIG. 3F
T3 construct: made in house
T3 sequence (P49841 whole entry T390A): as the sequence (P49841 whole entry) above, with T390A counted along it
Procedure: as §1

wild-type GSK3β = molecular target: T4, wild-type GSK3β (Homo sapiens, UniProt P49841); assay: as above; assay type: biochemical; conditions: preincubated 15 minutes at 30° C. with 500 ng kinase; FIG. 3D
T4 construct: made in house
T4 sequence (P49841 whole entry): as the sequence (P49841 whole entry) above
Procedure: as §1

GST-GSK3β [2] = molecular target: T1, GST-GSK3β; conditions: references 20, 21; cited from earlier work
GSM substrate peptide = assay: Specific activity of active GST-GSK3β wildtype and mutants; assay type: biochemical
Procedure: as §1

[3] = tested on: phosphorylation of GSK3β at Ser^389; assay: Western blot of phospho-Ser^389 in mouse GSK3β-transfected 293T cells; assay type: cell-based; conditions: FIG. 4D
Procedure: (§2) Thymocytes were isolated from wildtype, Rag^−/− or MKK6(Glu) transgenic mice. 293T cells were transiently transfected with the indicated expression constructs using calcium phosphate. When specified, 293T cells were treated with SB203580 (5 μM) and Wortmanin (1 μM) (Calbiochem, San Diego, Calif.). Wildtype, GSK3α^−/− and GSK3β^−/− ES cells (17), as well as WT and MKK3^−/−MKK6^−/− MEF (22) have been previously described, and were also treated with SB203580 as described above for the indicated periods of time. For in vivo inhibition of p38 MAPK, wildtype mice were intraperitoneally (i.p.) injected with SB203580 or vehicle alone, and after 18 hours brain and thymocytes were harvested to prepare whole cell lysates.
(§3) Whole cell extracts were prepared in Triton lysis buffer (TLB) as previously described (25, 26). Nuclear extracts were made from cells as previously described (27). Immunoprecipitations and Western blotting was performed as described in (8). Anti-Akt, anti-p38 MAPK, anti-Lef, anti-c-Myc and anti-Histone (Santa Cruz Biotechnology, Santa Cruz, Calif.), anti-GSK3β, anti-β-catenin, anti-phospho-p38 MAPK and antiphospho-S^9 (Cell Signaling, Beverly, Mass.) and Anti-Flag (Stratagene, La Jolla, Calif.) were used for Western blot analysis. The phospho-S^389 GSK3β antibody was made by Proteintech, Chicago, Ill., using N-C-ARIQAAA(phos-S)PPANATA (SEQ ID NO:87) for immunization. […]

phospho-Ser^389 GSK3β = assay: In vivo inhibition of p38 MAPK, phospho-Ser^389 GSK3β in thymocytes and brain; design: species or system mouse; conditions: wildtype mice i.p., 18 hours, FIG. 4L
Procedure: (§4) Thymocytes were isolated from wildtype, Rag^−/− or MKK6(Glu) transgenic mice.
(§5) Whole cell extracts were prepared in Triton lysis buffer (TLB) as previously described (25, 26). Nuclear extracts were made from cells as previously described (27). Immunoprecipitations and Western blotting was performed as described in (8). Anti-Akt, anti-p38 MAPK, anti-Lef, anti-c-Myc and anti-Histone (Santa Cruz Biotechnology, Santa Cruz, Calif.), anti-GSK3β, anti-β-catenin, anti-phospho-p38 MAPK and antiphospho-S^9 (Cell Signaling, Beverly, Mass.) and Anti-Flag (Stratagene, La Jolla, Calif.) were used for Western blot analysis. […] Anti-Akt, anti-p38 MAPK and Anti-GSK3β were used for immunoprecipitations. Anti-rabbit-HRP, anti-mouse-HRP (Jackson ImmunoResearch Laboratories, West Grove, Pa.) and anti-goat-HRP (Santa Cruz Biotechnology, Santa Cruz, Calif.) were used as secondary antibodies.

[4] = tested on: phospho-Ser^9 GSK3β in 293T cells; assay: Western blot of phospho-Ser^9 GSK3β in treated 293T cells; assay type: cell-based; conditions: 40 minutes, SB203580 5 μM, Wortmanin 1 μM, FIG. 7
Procedure: as §4, §5

p38 MAPK = conditions: SB203580 2.5 μM
Procedure: The reactions were terminated after 30 min at 30° C. by addition of SDS-PAGE sample buffer, separated by SDS-PAGE and transferred to nitrocellulose. Protein was visualized by staining with PonceauS and incorporated ^32P was visualized by autoradiography. In specific experiments, whole cell extracts were first depleted of Akt prior to p38 MAPK immunoprecipitation by being pre-incubated with anti-Akt antibody prebound to protein A-Sepharose followed by one incubation with protein A-sepharose alone.

[5] = tested on: phosphorylation of endogenous GSK3β at Ser^389; assay: Western blot of phospho-Ser^389 of endogenous GSK3β in MEFs and ES cells; assay type: cell-based, mouse; conditions: FIG. 4E-F
Procedure: as §2, §3

β-catenin = assay: Western blot of β-catenin in 293T cells transfected with GSK3β, p38 and MKK6; assay type: cell-based; conditions: FIG. 4D
Procedure: as §2, §3

RIQAAASTPTN [unphosphorylated-Thr^390 peptide, reference compound]
GSK3β activity in the presence of peptide (GST-GSK3β [1]): did not

p38 MAPK: recombinant active p38 MAPK (Cell Signaling)
effect on GSK3α activity (GSK3α): did not affect; also recorded: does not inhibit
effect on GSK3β activity (GSK3β-T^43A mutant): inhibited
effect on GSK3β activity (GSK3β-T^390A mutant): not
effect on GSK3β activity (wild-type GSK3β): inhibited

GRPRTTS(PO3H2)FAE (GRPRTT[pS]FAE) [phospho-Ser^9 peptide]
inhibition of GSK3β in vitro (GST-GSK3β [2]): specifically inhibits GSK3β in vitro

GST-GSK3β: purified active wildtype GST-GSK3β fusion protein
specific activity (GSM substrate peptide): 91 µmol/µg/min

C[S+]([O-])c1ccc(-c2nc(-c3ccncc3)c(-c3ccc(F)cc3)[nH]2)cc1 (stereo not drawn) [SB203580]
phosphorylation of Ser^389 [3]: abrogated
levels of phospho-Ser^389 GSK3β (phospho-Ser^389 GSK3β; brain): reduced
levels of phospho-Ser^389 GSK3β (phospho-Ser^389 GSK3β; thymocytes): reduced
phosphorylation of Ser^9 of GSK3β [4]: not affected
phosphorylation of GSK3β by purified recombinant activated p38 MAPK (p38 MAPK; FIG. 2E): blocked
phosphorylation of recombinant catalytically-inactive GSK3β by immunoprecipitated p38 MAPK (p38 MAPK; p38 MAPK from MKK6 thymocytes or MKK6-transfected 293T cells, FIG. 2C): blocked
phosphorylation of endogenous GSK3β at Ser^389 ([5]; embryonic stem (ES) cells): inhibited
phosphorylation of endogenous GSK3β at Ser^389 ([5]; wild-type mouse embryonic fibroblasts (MEFs)): inhibited
amount of β-catenin (β-catenin): decreased

COC[C@H]1OC(=O)c2coc3c2[C@@]1(C)C1=C(C3=O)[C@@H]2CCC(=O)[C@@]2(C)C[C@H]1OC(C)=O [Wortmanin]
phosphorylation of Ser^9 of GSK3β [4]: impaired

RIQAAAST(PO3H2)PTN (RIQAAAS[pT]PTN) [phospho-Thr^390 peptide]
GSK3β activity in the presence of peptide (GST-GSK3β [1]): inhibited GSK3β activity
inhibition of GSK3β activity compared with phospho-Ser^9 peptide (GST-GSK3β [1]; various concentrations of peptides, FIG. 3H-J): as efficiently as the phospho-Ser^9 peptide

GST-GSK3β-T^390A: purified active GST-GSK3β T^390A mutant
specific activity (GSM substrate peptide): 65 µmol/µg/min

GST-GSK3β-T^43A: purified active GST-GSK3β T^43A mutant
specific activity (GSM substrate peptide): 53 µmol/µg/min

B1: Akt: recombinant active Akt (Cell Signaling) (protein)
chain: MNDVAIVKEGWLHKRGEYIKTWRPRYFLLKNDGTFIGYKERPQDVDQRESPLNNFSVAQCQLMKTERPRPNTFIIRCLQWTTVIERTFHVETPEEREEWATAIQTVADGLKRQEEETMDFRSGSPSDNSGAEEMEVSLAKPKHRVTMNEFEYLKLLGKGTFGKVILVKEKATGRYYAMKILKKEVIVAKDEVAHTLTENRVLQNSRHPFLTALKYSFQTHDRLCFVMEYANGGELFFHLSRERVFSEDRARFYGAEIVSALDYLHSEKNVVYRDLKLENLMLDKDGHIKITDFGLCKEGIKDGATMKTFCGTPEYLAPEVLEDNDYGRAVDWWGLGVVMYEMMCGRLPFYNQDHEKLFELILMEEIRFPRTLGPEAKSLLSGLLKKDPTQRLGGGSEDAKEIMQHRFFANIVWQDVYEKKLSPPFKPQVTSETDTRYFDEEFTAQMITITPPDQDDSMECVDSERRPHFPQFSYSASGTA
effect on GSK3β activity (GSK3β-T^43A mutant): inhibited
effect on GSK3β activity (GSK3β-T^390A mutant): inhibited
effect on GSK3β activity (wild-type GSK3β): inhibited
